Experimental data as given in PMC4066779.

Test system: GST-DDX6 (human)
Assay: EMSA

Substance CUG-200 RNA has a Kd of less than 250 nM.
